Experimental data: patent US20230028110A1 (ADAPTATE BIOTHERAPEUTICS, published 2023)
Where a chain is given by its changes, count along the chain named. Names may count otherwise. Where two headings read alike, the source gives them in different places. Values belong to the binder of their own block, whether it stands above or below them.

How the values were obtained:
[1] = target: Vδ1 chain of the γδ TCR on human Vδ1 γδ T cells (human); test: cell-based or functional assay
[2] = target: T1, Cyno DV1/GV77 antigen, recombinant cynomolgus Vδ1 heterodimer (cynomolgus monkey); test: SPR (Reichert 4SPR), antibody on Protein A chip, Vδ1 heterodimer at 6.25-100 nM as analyte
T1 construct: also called cyno TRDV1; Cyno DV1-77; not shown: delta CDR3/J, TCR constant region, zipper and tag; the whole gamma chain GV77
T1 sequence (delta, as listed by the source limits assumed): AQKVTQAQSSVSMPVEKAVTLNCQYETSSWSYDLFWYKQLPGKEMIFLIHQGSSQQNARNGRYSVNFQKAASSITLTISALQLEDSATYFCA

[3] = target: T2, L1 (DV1-GV4), soluble human Vδ1/Vγ4 γδ TCR heterodimer in leucine zipper format (human); test: as above
T2 construct: Biotinylated in the DELFIA ranking; also called Antigen L1 (TRDV1/TRGV4); human DV1-GV4; not shown: gamma chain: Vγ4 (TRGV4) domain on a TCR constant region, leucine zipper, histidine tag
T2 sequence (main, as listed by the source): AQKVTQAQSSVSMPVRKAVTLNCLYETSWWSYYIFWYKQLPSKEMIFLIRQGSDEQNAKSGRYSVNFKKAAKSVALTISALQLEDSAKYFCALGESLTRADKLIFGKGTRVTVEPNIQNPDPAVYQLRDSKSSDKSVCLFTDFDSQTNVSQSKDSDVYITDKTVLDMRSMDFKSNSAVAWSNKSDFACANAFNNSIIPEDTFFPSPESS

[4] = target: T1, Cyno DV1/GV77 antigen, recombinant …; test: SPR (Reichert 4SPR), antibody on Protein A chip
[5] = target: T2, L1 (DV1-GV4), soluble human Vδ1/Vγ4 γδ …; test: DELFIA, 100 nM biotinylated L1
[6] = target: Vδ1 chain of the γδ TCR on human Vδ1 γδ T cells (human); test: cell-based or functional assay; remark: listed apart in the source
[7] = target: T2, L1 (DV1-GV4), soluble human Vδ1/Vγ4 γδ …; test: SPR (Reichert 4SPR), antibody on Protein A chip, human Vδ1 antigen as analyte; average of two replicates on two instruments
Description: The binding affinity of the antibodies to target (i.e. the Vδ1 chain of a γδ TCR) is established by SPR analysis using a Reichert 4SPR instrument (Reichert Technologies).
The binding interaction of Vδ1 and the affinity-matured mAbs were modelled according to Langmuir 1:1 binding.

[8] = target: Vδ1 chain of the γδ TCR on human Vδ1 γδ T cells (human); test: cell-based or functional assay; remark: listed apart in the source
[9] = target: T3, Vδ1 chain of the γδ TCR on human Vδ1 γδ T cells (human); test: flow cytometry binding to Vδ1 γδ T cells, donor TS164; column head printed 'IC50', unit nM from the chart axis and FIG. 34D
T3 construct: whole, on cells; also called cell surface Vδ1 TCR; Vδ1-positive γδ T cells
T3 sequence (A0A1B0GX56 22-115, stated change not applied): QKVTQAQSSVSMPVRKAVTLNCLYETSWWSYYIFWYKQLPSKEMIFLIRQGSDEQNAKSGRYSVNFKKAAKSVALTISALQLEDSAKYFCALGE
Protocol: (§1) All incubation steps were performed at 4° C. and mAb binding was determined using flow cytometry to measure the median level of fluorescence. Logarithmic four parameter dose-response curves were fitted using GraphPad Prism 9. […] For Vδ1-positive γδ T cell, data is represented as the mean two donors.
(§2) A range of target cells were assayed to determine the specificity and affinity of Vδ1 mAb binding. This included expanded skin-derived Vδ1 γδ T-cells, HEK293T cells, Raji cells, and multiple leukocyte subsets within human primary blood mononuclear cells. Adherent or semi-adherent cells (skin-derived Vδ1 γδ T-cells, HEK293T) were detached from tissue culture flask and resuspended in PBS. Similarly, non-adherent cell types (Raji, PBMC), were harvested and resuspended in PBS. Cells were seeded at a final density of 100,000 cells per well in v-bottom 96-well plates. Cells underwent centrifugation and the cell pellets were resuspended in FcR blocking reagent according to the manufacturer's instructions, and incubated for 20 minutes at 4C prior to a further wash. […] To determine the quantity of mAb bound to the cell surface, the cells were then stained with a murine anti-human IgG secondary antibody, conjugated to APC (dilution: 1:100). For Vδ1 γδ T-cells, HEK293T and Raji, the cells were also stained solely with a viability dye.

[10] = target: T3, Vδ1 chain of the γδ TCR on human Vδ1 γδ …; test: flow cytometry binding to Vδ1 γδ T cells, donor ATS006; column head printed 'IC50', unit nM from the chart axis and FIG. 34D
Protocol: as §1, §2

[11] = target: T2, L1 (DV1-GV4), soluble human Vδ1/Vγ4 γδ …; test: DELFIA ELISA, human antigen; heat map cell of the clone
[12] = target: T3, Vδ1 chain of the γδ TCR on human Vδ1 γδ …; test: cell-based or functional assay; remark: listed apart in the source
[13] = target: T3, Vδ1 chain of the γδ TCR on human Vδ1 γδ …; test: flow cytometry, Vδ1 γδ T cells of donor TS164, mAb titrated up to about 500 nM at 4 C, anti-human IgG detection
Protocol: as §1, §2

[14] = target: T3, Vδ1 chain of the γδ TCR on human Vδ1 γδ …; test: flow cytometry, Vδ1 γδ T cells of donor ATS006, mAb titrated up to about 500 nM at 4 C, anti-human IgG detection
Protocol: as §1, §2

[15] = target: 4-1BB on 4-1BB+ NFAT Jurkat cells (human, UniProt Q07011); test: cell-based or functional assay
4-1BB on 4-1BB+ NFAT Jurkat cells, sequence (Q07011 24-255 limits assumed): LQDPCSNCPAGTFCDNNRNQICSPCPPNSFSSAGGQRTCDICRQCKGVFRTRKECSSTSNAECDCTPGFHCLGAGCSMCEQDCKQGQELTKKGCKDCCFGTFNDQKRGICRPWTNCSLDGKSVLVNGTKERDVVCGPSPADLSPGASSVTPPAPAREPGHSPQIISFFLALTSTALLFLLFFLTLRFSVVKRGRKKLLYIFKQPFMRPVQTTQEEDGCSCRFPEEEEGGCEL

[16] = target: T3, Vδ1 chain of the γδ TCR on human Vδ1 γδ …; test: flow cytometry on Vδ1 γδ T-cells, anti-human IgG secondary antibody, % cells bound IgG
[17] = target: T2, L1 (DV1-GV4), soluble human Vδ1/Vγ4 γδ …; test: SPR (Reichert 4SPR), antibody on Protein A chip, antigen flown over
Protocol: Recombinant human Vδ1 heterodimer or human 4-1BB was flown over the cell at a top concentration of 100 nM.

[18] = target: T3, Vδ1 chain of the γδ TCR on human Vδ1 γδ …; test: cell-based or functional assay; remark: listed apart in the source
[19] = target: T3, Vδ1 chain of the γδ TCR on human Vδ1 γδ …; test: cell-based or functional assay; remark: listed apart in the source

B4: 1245_P01_G06 (antibody, V domains shown)
VH: QVQLVESGGGLVKPGGSLRLSCAASGFTFSDYYMSWIRQAPGKGLEWVSYISSSGSTIYYADSVKGRFTISRDNAKNSLYLQMNSLRAEDTAVYYCARHSWNDAFDVWGQGTLVTVSS
VL: not shown
notes: IgG1
- DELFIA signal at 100 nM L1 [5]: 22500 fluorescence units

B6: 1245_P01_B07 (antibody, IgG1, V domains shown)
VH: B4 VH with Q1E, V5L, H99E, S100N, W101Y, N102L, D103N, V107I, Q110R
VL: DIQMTQSPSSLSASVGDRVTITCRTSQSLSNYLNWYQQKPGKAPKLLIYAASSLQSGVPSRFSGSGSGTDFTLTISSLQPEDFATYYCQQSYSTPLTFGGGTKLEIK
notes: IgG1
- DELFIA signal at 100 nM L1 [5]: 64300 fluorescence units
- TCR downregulation (EC50 µg/ml), 1 donor only [6]: 0.35 µg/mL

B7: 1245_P01_E07 (antibody, IgG1, V domains shown)
VH: B4 VH with H99V, S100D, W101Y, N102A, V107I
VL: DIQMTQSPSSLSASVGDRVTIACRAGQSIGTYLNWYQQKPGKAPKLLIYVASSLQSGVPSRFSGSGSGTEFTLTISSLQPEDFATYYCQQSYSTLLTFGRGTKVEIK
notes: also called ADT1-7; parental ADT1-7
- Kd [7]: 38.1 nM
- DELFIA signal at 100 nM L1 [5]: 163000 fluorescence units
- IC50 TCR DR (no THP-1) [8]: 22.4 nM
- IC90 TCR DR (noTHP-1) [8]: 139 nM
- EC50 [9]: 226 nM
- EC50 [10]: > 100 nM
- ELISA signal (heat map) [11]: 5470

B11: 1139_P01_E04 (antibody, IgG1, V domains shown)
VH: QVQLQQSGPGLVKPSQTLSLTCAISGDSVSSNSAAWNWIRQSPSRGLEWLGRTYYRSKWYNDYAVSVRSRITINPDTSKNQFSLQLNSVTPEDTAVYYCARSWNDAFDIWGQGTTVTVSS
VL: DIVMTQSPSTLSASIGDRVTITCRAGQSISTWLAWYQQKPGKAPKLLIYDASSLESGVPLRFSGSGSGTDFTLTISSLQPEDFATYYCQQSYSTPLTFGGGTKVEIK
notes: IgG1
- DELFIA signal at 100 nM L1 [5]: 23800 fluorescence units

B13: 1245_P01_G09 (antibody, IgG1, V domains shown)
VH: QVQLQQSGPGLVKPSQTLSLTCAISGDSVSSNSAAWNWIRQSPSRGLEWLGRTYYGSKWYNEYALSVKSRIIINPDTSKNQFSLQLNSVTPEDTAVYYCARDYYYSMDVWGQGTLVTVSS
VL: B11 VL with D70E, T74A, E81D, L96V, G100Q
notes: IgG1
- DELFIA signal at 100 nM L1 [5]: 18400 fluorescence units

Second part, the binder after the results:

- IC90 TCR DR (noTHP-1) [1]: 1 nM
B1: ADT1-4-86 (antibody, IgG1, V domains shown)
VH: EVQLQQSGPGLVKPSQTLSLTCAISGDSVSSKSVAWNWIRQSPSRGLEWLGRTYYRSKWSTDYAASVKSRITINPDTSKNQLSLQLNSVTPEDTAVYYCARTWLGNVDVWGQGTLVTVSS
VL: DIQMTQSPPALSASVGDRVTITCRASQDINDWLAWYQHKPGKAPKLLIYDASSLESGVPLRFSGSGSGTEFTLTISSLQPDDFATYYCQQKYSEPQVTFGQGTRLEIK

- Kd [2]: 77 nM
- Kd [3]: 3.5 nM
- fold increase in affinity against ADT1-4 [4]: ~5 fold
B2: ADT1-4 (S74L) (antibody, V domains shown)
VH: B1 VH with E1Q, V34A, L104S, N106Y
VL: DIQMTQSPPALSASVGDRVTITCRASQDINDWLAWYQHKPGKAPKLLIYDASSLESGVPLRFSGSGSGTEFTLTISSLQPDDFATYYCQQSYSTPQVTFGQGTRLEIKR
notes: Captured on Protein A; also called ADT1-4 (574L)

- DELFIA signal at 100 nM L1 [5]: 17100 fluorescence units
- TCR downregulation (EC50 µg/ml-3 donors) [6]: 0.849 µg/mL
B3: 1251_P02_G10 (antibody, IgG1, V domains shown)
VH: B4 VH with Q1E, K13Q, V107I, Q110R
VL: B6 VL with T25A, L29I, N31S, Y32H, G64A, P95L, L104V
notes: IgG1

- Kd [7]: 4.99 nM
- IC50 TCR DR (no THP-1) [8]: 0.164 nM
- IC90 TCR DR (noTHP-1) [8]: 1.04 nM
- EC50 [9]: 2.68 nM
- EC50 [10]: 37.2 nM
- ELISA signal (heat map) [11]: 30800
B5: ADT1-7-20 (antibody, IgG1, V domains shown)
VH: B4 VH with Q1E, H99V, S100D, W101Y, N102Q, D103E, V107I
VL: B7 VL with T94G, L96D
notes: IgG1

- Kd [7]: 1.04 nM
- IC50 of TCR downregulation (Vδ1 TCR staining as % MFI, soluble antibody, 2 h, average of two γδ cell donors) [12]: 6.26 nM
- IC50 TCR DR (no THP-1), one donor only [8]: 0.173 nM
- EC50 [9]: 196 nM
- EC50 [10]: 93 nM
- ELISA signal (heat map) [11]: 32700
B8: ADT1-7-61 (antibody, IgG1, V domains shown)
VH: B4 VH with Q1E, H99D, S100D, W101Y, N102D, V107I
VL: B7 VL with Y92A, T94E
notes: IgG1

- Kd [7]: 3.78 nM
- EC50 (read off the curve) [13]: ~1 nM
- EC50 (read off the curve) [14]: ~5 nM
- IC50 TCR DR (no THP-1) [8]: 0.161 nM
- IC90 TCR DR (noTHP-1) [8]: 0.79 nM
- EC50 [9]: 0.952 nM
- EC50 [10]: 5.15 nM
- ELISA signal (heat map) [11]: 37100
B9: ADT1-7-3 (antibody, IgG1, V domains shown)
VH: B4 VH with Q1E, H99V, W101Y, N102A, D103E, V107I
VL: B7 VL with T94G, L96D
notes: IgG1

- EC50 (read off the curve), 4-1BB+ NFAT Jurkat activation assay [15]: 10 to 20 nM
- EC50 (read off the curve) [16]: ~0.3 nM
- Kd [17]: 1.2 nM
- IC50 (read off the curve), Vδ1 TCR downregulation, γδ T-cells alone [18]: ~0.2 nM
- IC50 (read off the curve), Vδ1 TCR downregulation, γδ T-cells with activated 4-1BB+ CD8 T-cells [19]: ~0.1 nM
B10: Anti-Vδ1xanti-4-1BB (ADT1-4-2xutomilumab) bispecific antibody (bispecific antibody, human IgG1, kappa)
light: DIQMTQSPPALSASVGDRVTITCRASQDINDWLAWYQHKPGKAPKLLIYDASSLESGVPLRFSGSGSGTEFTLTISSLQPDDFATYYCQQKYSAPQVTFGQGTRLEIKRTVAAPSVFIFPPSDEQLKSGTASVVCLLNNFYPREAKVQWKVDNALQSGNSQESVTEQDSKDSTYSLSSTLTLSKADYEKHKVYACEVTHQGLSSPVTKSFNRGEC
heavy: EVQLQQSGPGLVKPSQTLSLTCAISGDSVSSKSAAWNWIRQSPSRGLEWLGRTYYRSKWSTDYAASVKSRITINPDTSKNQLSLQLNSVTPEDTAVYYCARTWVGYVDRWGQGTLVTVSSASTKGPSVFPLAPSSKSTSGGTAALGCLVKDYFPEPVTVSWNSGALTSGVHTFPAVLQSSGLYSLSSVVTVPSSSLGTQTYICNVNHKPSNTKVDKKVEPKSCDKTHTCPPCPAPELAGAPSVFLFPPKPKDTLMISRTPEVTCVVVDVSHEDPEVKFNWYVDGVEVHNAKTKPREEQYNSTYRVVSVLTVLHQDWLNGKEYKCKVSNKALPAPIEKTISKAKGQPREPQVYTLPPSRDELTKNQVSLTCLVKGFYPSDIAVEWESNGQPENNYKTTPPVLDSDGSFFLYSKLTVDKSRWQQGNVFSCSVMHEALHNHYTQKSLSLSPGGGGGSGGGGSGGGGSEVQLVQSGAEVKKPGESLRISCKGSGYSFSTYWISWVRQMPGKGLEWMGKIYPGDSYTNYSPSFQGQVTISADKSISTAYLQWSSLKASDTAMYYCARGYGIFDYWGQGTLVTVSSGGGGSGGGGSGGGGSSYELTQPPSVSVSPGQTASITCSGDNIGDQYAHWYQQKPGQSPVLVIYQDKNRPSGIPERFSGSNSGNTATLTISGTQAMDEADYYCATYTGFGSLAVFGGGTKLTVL
notes: also called ADT1-4-2x 4-1BB; Vδ1-4-1BB bispecific antibody

- DELFIA signal at 100 nM L1 [5]: 10400 fluorescence units
B12: 1245_P02_F07 (antibody, IgG1, V domains shown)
VH: B13 VH with A23V, G56R, E62D, L65V, I72T, L115M
VL: DIQMTQSPSTLSASVGDRVTITCRASQSISSWLAWYQQKPGKAPKLLIYDASSLESGVPLRFSGSGSGTEFTLTISSLQPDDFATYYCQQSHSHPPTFGPGTKVDIK
notes: IgG1
